# From PMC9205196 (Nature chemical biology, 2022)
# T1: FGFR1, biotinylated (UniProt P11362 22-822, biotin (sulfo-NHS-biotin))
# T1 chain: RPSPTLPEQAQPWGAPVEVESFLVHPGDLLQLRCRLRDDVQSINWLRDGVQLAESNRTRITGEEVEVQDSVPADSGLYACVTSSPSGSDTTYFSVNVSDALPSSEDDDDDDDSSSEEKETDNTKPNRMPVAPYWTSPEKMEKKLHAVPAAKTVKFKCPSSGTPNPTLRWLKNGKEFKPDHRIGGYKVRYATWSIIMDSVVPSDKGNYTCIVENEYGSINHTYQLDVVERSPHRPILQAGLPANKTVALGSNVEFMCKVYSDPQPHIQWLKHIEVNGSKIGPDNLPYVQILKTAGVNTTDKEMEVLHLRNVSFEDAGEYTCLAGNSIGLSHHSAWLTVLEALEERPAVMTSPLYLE
# Legend:
# Assay in all cases: AlphaScreen or HTRF
# FGFR1, biotinylated [1] = molecular target: T1, FGFR1, biotinylated
# [2] = molecular target: Recombinant human FGF2 (fibroblast growth factor-2), biotinylated (human, biotin (sulfo-NHS-biotin))
# FGFR1, biotinylated [3] = molecular target: T1, FGFR1, biotinylated
# [4] = molecular target: Vitronectin (VN), biotinylated (UniProt P04004 20-478, biotin (sulfo-NHS-biotin))
# Chain of Vitronectin (VN), biotinylated (P04004 20-478): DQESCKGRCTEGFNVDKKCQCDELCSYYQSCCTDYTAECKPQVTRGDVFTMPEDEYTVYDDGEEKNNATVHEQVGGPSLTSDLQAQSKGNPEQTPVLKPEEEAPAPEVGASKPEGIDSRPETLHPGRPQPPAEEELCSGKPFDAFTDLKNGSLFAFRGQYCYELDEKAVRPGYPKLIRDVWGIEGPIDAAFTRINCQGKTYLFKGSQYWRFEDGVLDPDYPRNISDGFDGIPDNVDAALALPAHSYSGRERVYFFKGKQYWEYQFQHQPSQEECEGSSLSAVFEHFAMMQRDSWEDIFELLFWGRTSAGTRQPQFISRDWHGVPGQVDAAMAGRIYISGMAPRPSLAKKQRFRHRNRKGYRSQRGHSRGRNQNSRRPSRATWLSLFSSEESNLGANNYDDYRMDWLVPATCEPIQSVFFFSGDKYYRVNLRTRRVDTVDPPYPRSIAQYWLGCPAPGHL
Binder,"EC50 of ternary complex formation with soluble non-tagged FGF2 (FGFR1, biotinylated [1]) [pM]",EC50 [2] [pM],"EC50 (FGFR1, biotinylated [3]) [pM]",EC50 [4] [pM]
"SDC1_(45,47HEP): murine syndecan-1 ectodomain with heparin conjugated at residues 45 and 47 (domain or fragment, p-propargyltyrosine (pPY) at 45 and 47, each joined by CuAAC to azido-heparin (azHEP)) QIVAVNVPPEDQDGSGDDSDNFYGYGTGALPDTLSRQTPSTWKDVWLLTATPTAPEPTSSNTETAFTSVLPAGEKPEEGEPVLHVEAEPGFTARDKEKEVTTRPRETVQLPITQRASTVRVTTAQAAVTSHPHGGMQPGLHETSAPTAPGQPDHQPPRVEGGGTSVIKEVVEDGTANQLPAGEGSGEQDFTFETSGENTAVAAVEPGLRNQPPVDEGATGASQSLLDRKEVLG",4,300,400,800
"SDC1_(37,45,47HEP): murine syndecan-1 ectodomain with heparin conjugated at residues 37, 45 and 47 (domain or fragment, p-propargyltyrosine (pPY) at 37, 45 and 47, each joined by CuAAC to azido-heparin (azHEP)) QIVAVNVPPEDQDGYGDDSDNFYGYGTGALPDTLSRQTPSTWKDVWLLTATPTAPEPTSSNTETAFTSVLPAGEKPEEGEPVLHVEAEPGFTARDKEKEVTTRPRETVQLPITQRASTVRVTTAQAAVTSHPHGGMQPGLHETSAPTAPGQPDHQPPRVEGGGTSVIKEVVEDGTANQLPAGEGSGEQDFTFETSGENTAVAAVEPGLRNQPPVDEGATGASQSLLDRKEVLG",8,300,300,500
"mSDC1: commercial glycosylated, mammalian expressed recombinant mouse SDC1 ectodomain (domain or fragment, UniProt P18828 23-255, looked up, native GAG chains from the mammalian host (CS predominant over HS by the paper's disaccharide analysis)) QIVAVNVPPEDQDGSGDDSDNFSGSGTGALPDTLSRQTPSTWKDVWLLTATPTAPEPTSSNTETAFTSVLPAGEKPEEGEPVLHVEAEPGFTARDKEKEVTTRPRETVQLPITQRASTVRVTTAQAAVTSHPHGGMQPGLHETSAPTAPGQPDHQPPRVEGGGTSVIKEVVEDGTANQLPAGEGSGEQDFTFETSGENTAVAAVEPGLRNQPPVDEGATGASQSLLDRKEVLG",4000,–,> 20000,> 100000
